According to US20150344570A1 (published 2015):
Substitutions are numbered along the chain they refer to.

What was measured:
[1] = molecular target: T1, FcγRIIa R extracellular domain with C-terminal His tag (human, UniProt P12318 34-217); assay: SPR (Biacore), relative FcγRIIa R binding, GpH7-A5/GpH7-B3/GpL16-k0 = 100
T1 construct: extracellular domain; also called FcgRIIa R; 2aR; not shown: His tag at the C terminus
T1 sequence (looked up): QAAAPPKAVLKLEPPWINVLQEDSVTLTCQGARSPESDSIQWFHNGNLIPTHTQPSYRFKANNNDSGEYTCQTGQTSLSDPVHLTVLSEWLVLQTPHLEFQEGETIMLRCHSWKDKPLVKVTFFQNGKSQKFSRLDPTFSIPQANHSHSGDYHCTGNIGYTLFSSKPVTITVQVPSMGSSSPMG

[2] = molecular target: T2, FcγRIIa H (human, UniProt P12318 34-217); assay: SPR (Biacore), captured antibody, FcγR as analyte; GpH7-A5/GpH7-B3/GpL16-k0 = 100
T2 construct: extracellular domain; also called FcγRIIa type H; 2aH
T2 sequence (looked up): T1 sequence (looked up) with R134H
Experimental: (§1) The heterodimerized antibodies He Abs in which one of the H chains was introduced with an alteration were assayed for their binding activities to each activating FcγR and inhibitory FcγR according to the method described in Example 4. […] The activating FcγRs in FIGS. 26, 27, 28, and 29 are FcγRIa, FcγRIIa (R), FcγRIIa (H), and FcγRIIIa, respectively.
(§2) Analysis of interaction between objective antibody and the FcγR was carried out using Biacore T100 (GE Healthcare). HBS-EP+ (GE Healthcare) was used as the running buffer, and the measurement temperature was set to 25° C. Chips produced by immobilizing the antigen peptide by the amine coupling method to a Series S Sencor Chip CM5 (GE Healthcare), or alternatively, chips produced by allowing preliminarily biotinylated antigen peptides to interact with and immobilize onto a Series S Sensor Chip SA (certified) (GE Healthcare) were used. Antibodies of interest were captured onto an antigen peptide-immobilized chip, and allowed to interact to each FcγR diluted with running buffer. To regenerate and repeatedly use the chip, the antibodies captured on the chip were washed off by reacting 10 mM glycine-HCl, pH 1.5.

[3] = molecular target: T3, FcγRIIb (human, UniProt P31994 43-217); assay: as above
T3 construct: extracellular domain; also called 2b; FcgRIIb
T3 sequence (looked up): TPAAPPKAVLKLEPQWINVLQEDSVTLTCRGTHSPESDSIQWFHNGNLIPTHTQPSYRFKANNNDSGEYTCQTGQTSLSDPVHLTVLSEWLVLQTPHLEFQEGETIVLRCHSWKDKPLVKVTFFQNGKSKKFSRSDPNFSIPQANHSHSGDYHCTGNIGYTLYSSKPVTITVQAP
Experimental: as §1, §2

[4] = molecular target: T2, FcγRIIa H; assay: ratio of He/Con_2aH to He/Con_2b (FcγRIIb); SPR

B1: GpH7-A5/GpH7-B3 variant P331_16H/GpL16-k0 (antibody, human IgG1, kappa)
heavy 1: not shown
heavy 2: not shown
light: DIVMTQSPLSLPVTPGEPASISCQASESLVHSNRNTYLHWYLQKPGQSPQLLIYKVSNRFSGVPDRFSGSGSGTDFTLKISRVEAEDVGVYYCSQNTHVPPTFGQGTKVEIERTVAAPSVFIFPPSDEQLKSGTASVVCLLNNFYPREAKVQWKVDNALQSGNSQESVTEQDSKDSTYSLSSTLTLSKADYEKHKVYACEVTHQGLSSPVTKSFNRGEC
notes: heterodimerized: alteration in one H chain only; also called He Ab P331_16H
For B1, the He/Con_2aR [1] was 114 % of control.

B2: GpH7-A5/GpH7-B3 variant S267_03V/GpL16-k0 (antibody, human IgG1, kappa)
heavy 1: not shown
heavy 2: not shown
light: B1 light
notes: heterodimerized: alteration in one H chain only; also called He Ab S267_03V
With B2 the He/Con_2aR [1] was 116 % of control.

B3: GpH7-A5/GpH7-B3 variant D270_07I/GpL16-k0 (antibody, human IgG1, kappa)
heavy 1: not shown
heavy 2: not shown
light: B1 light
notes: Heterodimerized anti-glypican-3 IgG1 (He Ab); mutation in the B3 H chain only; also called He Ab
With B3 the “He/Con_2aH (relative binding)” value [2] was 64%, the “He/Con_2b (relative binding)” value [3] was 41.5% and the “He_2aH/2b (IIaH/IIb ratio)” value [4] was 1.54.

B4: GpH7-A5/GpH7-B3 variant S298_08L/GpL16-k0 (antibody, human IgG1, kappa)
heavy 1: not shown
heavy 2: not shown
light: B1 light
notes: heterodimerized: alteration in one H chain only; also called He Ab S298_08L
In the case of B4, the He/Con_2aR [1] is reported as 105 % of control.

B5: GpH7-A5/GpH7-B3 variant D270_06M/GpL16-k0 (antibody, human IgG1, kappa)
heavy 1: not shown
heavy 2: not shown
light: B1 light
notes: as for B3
With B5 the “He/Con_2aH (relative binding)” value [2] was 74.4%, the “He/Con_2b (relative binding)” value [3] was 48.2% and the “He_2aH/2b (IIaH/IIb ratio)” value [4] was 1.54.

B6: GpH7-A5/GpH7-B3 variant S337_09D/GpL16-k0 (antibody, human IgG1, kappa)
heavy 1: not shown
heavy 2: not shown
light: B1 light
notes: heterodimerized: alteration in one H chain only; also called He Ab S337_09D
With B6 the He/Con_2aR [1] was 115 % of control.

B7: GpH7-A5/GpH7-B3 variant D270_11K/GpL16-k0 (antibody, human IgG1, kappa)
heavy 1: not shown
heavy 2: not shown
light: B1 light
notes: as for B3
In the case of B7, the “He/Con_2aH (relative binding)” value [2] is reported as 44%, the “He/Con_2b (relative binding)” value [3] is reported as 20.3% and the “He_2aH/2b (IIaH/IIb ratio)” value [4] is reported as 2.17.

B8: GpH7-A5/GpH7-B3 variant T335_10E/GpL16-k0 (antibody, human IgG1, kappa)
heavy 1: not shown
heavy 2: not shown
light: B1 light
notes: heterodimerized: alteration in one H chain only; also called He Ab T335_10E
With B8 the He/Con_2aR [1] was 111 % of control.

B9: GpH7-A5/GpH7-B3 variant D270_08L/GpL16-k0 (antibody, human IgG1, kappa)
heavy 1: not shown
heavy 2: not shown
light: B1 light
notes: as for B3
In the case of B9, the “He/Con_2aH (relative binding)” value [2] is reported as 75.8%, the “He/Con_2b (relative binding)” value [3] is reported as 53.6% and the “He_2aH/2b (IIaH/IIb ratio)” value [4] is reported as 1.41.

B10: GpH7-A5/GpH7-B3 variant S337_07I/GpL16-k0 (antibody, human IgG1, kappa)
heavy 1: not shown
heavy 2: not shown
light: B1 light
notes: heterodimerized: alteration in one H chain only; also called He Ab S337_07I
In the case of B10, the He/Con_2aR [1] is reported as 109 % of control.

B11: GpH7-A5/GpH7-B3 variant D270_10E/GpL16-k0 (antibody, human IgG1, kappa)
heavy 1: not shown
heavy 2: not shown
light: B1 light
notes: as for B3
For B11, the “He/Con_2aH (relative binding)” value [2] was 102%, the “He/Con_2b (relative binding)” value [3] was 76.5% and the “He_2aH/2b (IIaH/IIb ratio)” value [4] was 1.34.

B12: GpH7-A5/GpH7-B3 variant D270_03V/GpL16-k0 (antibody, human IgG1, kappa)
heavy 1: not shown
heavy 2: not shown
light: B1 light
notes: as for B3
With B12 the “He/Con_2aH (relative binding)” value [2] was 61.8%, the “He/Con_2b (relative binding)” value [3] was 39.5% and the “He_2aH/2b (IIaH/IIb ratio)” value [4] was 1.56.

B13: GpH7-A5/GpH7-B3 variant P331_20W/GpL16-k0 (antibody, human IgG1, kappa)
heavy 1: not shown
heavy 2: not shown
light: B1 light
notes: heterodimerized: alteration in one H chain only; also called He Ab P331_20W
With B13 the He/Con_2aR [1] was 110 % of control.

B14: GpH7-A5/GpH7-B3 variant S239_08L/GpL16-k0 (antibody, human IgG1, kappa)
heavy 1: not shown
heavy 2: not shown
light: B1 light
notes: heterodimerized: alteration in one H chain only; also called He Ab S239_08L
With B14 the He/Con_2aR [1] was 122 % of control.

B15: GpH7-A5/GpH7-B3 variant T335_13S/GpL16-k0 (antibody, human IgG1, kappa)
heavy 1: not shown
heavy 2: not shown
light: B1 light
notes: heterodimerized: alteration in one H chain only; also called He Ab T335_13S
In the case of B15, the He/Con_2aR [1] is reported as 110 % of control.

B16: GpH7-A5/GpH7-B3 variant D270_04F/GpL16-k0 (antibody, human IgG1, kappa)
heavy 1: not shown
heavy 2: not shown
light: B1 light
notes: as for B3
With B16 the “He/Con_2aH (relative binding)” value [2] was 75.4%, the “He/Con_2b (relative binding)” value [3] was 53.1% and the “He_2aH/2b (IIaH/IIb ratio)” value [4] was 1.42.

B17: GpH7-A5/GpH7-B3 variant S337_03V/GpL16-k0 (antibody, human IgG1, kappa)
heavy 1: not shown
heavy 2: not shown
light: B1 light
notes: heterodimerized: alteration in one H chain only; also called He Ab S337_03V
B17 was tested, and the He/Con_2aR [1] was 106 % of control.

B18: GpH7-A5/GpH7-B3 variant S337_06M/GpL16-k0 (antibody, human IgG1, kappa)
heavy 1: not shown
heavy 2: not shown
light: B1 light
notes: heterodimerized: alteration in one H chain only; also called He Ab S337_06M
For B18, the He/Con_2aR [1] was 105 % of control.

B19: GpH7-A5/GpH7-B3 variant S239_10E/GpL16-k0 (antibody, human IgG1, kappa)
heavy 1: not shown
heavy 2: not shown
light: B1 light
notes: heterodimerized: alteration in one H chain only; also called He Ab S239_10E
With B19 the He/Con_2aR [1] was 135 % of control.

B20: GpH7-A5/GpH7-B3 variant S337_19Q/GpL16-k0 (antibody, human IgG1, kappa)
heavy 1: not shown
heavy 2: not shown
light: B1 light
notes: heterodimerized: alteration in one H chain only; also called He Ab S337_19Q
In the case of B20, the He/Con_2aR [1] is reported as 106 % of control.
